Publication PMC7828216, “Identification and Functional Analysis of Apoptotic Protease Activating Factor-1 (Apaf-1) from Spodoptera litura” (Insects, 2021)

B1: Sl-Apaf-1-CARD (caspase recruitment domain of Spodoptera litura apoptotic protease activating factor-1, 1-88aa) (domain or fragment, UniProt A0A7T6ZKB7 1-88, looked up)
chain: MDKHKRLLLQKYQQDIIDDLDVAYVYDELFAKHVISAEEVDRMFSLTTRIDQTRFLLDSLIRNGTNGTYQVFVDSLQKDYGWLWEKLA
notes: caspase recruitment domain, residues 1-88; Cloned with Nde I and Xho I in pET-22b; also called Sl-Af88; Sl-Apaf-1-CARD domain protein fragment
B2: Sl-caspase5-CARD (caspase recruitment domain of Spodoptera litura caspase-5, 1-132aa) (domain or fragment, UniProt R4I520 1-132, looked up)
chain: MQREHRDAIQSNFSSLVERTDLDSVVTALYEKGVFSEQMIEPYRNNSELERDRKRRLYMDVTRRGPHAFAHLVDTLGELGYWDLARDLDPDSPFSFSSQQRSHPIPQPKPADNDNFRSLSTSNRPRAEPNRI
notes: Sl-caspase-5 of Spodoptera litura (a homologue of mammalian caspase-9; Dronc), GenBank JQ768051; caspase recruitment domain, residues 1-132; Cloned with Nde I and Xho I in pET-22b; also called caspase-5-CARD domain

Experiments:
[1] = target: B2; experiment: ITC; Sl-Apaf-1-CARD at 50 µM, Sl-caspase-5-CARD at 450 µM; 10 mM HEPES, 100 mM NaCl, 2 mM DTT, pH 7.4; 20 °C; 20 injections; VP-ITC; which protein was in the cell is not said; details: both partners purified
[2] = target: B1; experiment: as above; details: both partners purified

Binder | Ka [1] [M⁻¹] | dH [2] [kcal/mol] | stoichiometry N [2]
B1 | 1.28e+06 | – | –
B2 | – | -15.5 | 1
